Measurements published in patent US9814672B2, “Echogenic vehicle for clinical delivery of plasminogen activator and other fibrin-binding therapeutics to thrombi” (priority 2007, dated 2017).

Experiments:
fibrin [1] = target: T1, fibrin (Homo sapiens, UniProt P02671+P02675+P02679); assay: Solid-phase fibrin-tPA activity assay (SOFIA-tPA), Scatchard analysis; conditions: 37° C., read-out: KD of fibrin binding
T1 construct: purchased Calbiochem (EMD Biosciences, Inc., La Jolla, Calif.)
T1 sequence (P02671 36-629 limits assumed): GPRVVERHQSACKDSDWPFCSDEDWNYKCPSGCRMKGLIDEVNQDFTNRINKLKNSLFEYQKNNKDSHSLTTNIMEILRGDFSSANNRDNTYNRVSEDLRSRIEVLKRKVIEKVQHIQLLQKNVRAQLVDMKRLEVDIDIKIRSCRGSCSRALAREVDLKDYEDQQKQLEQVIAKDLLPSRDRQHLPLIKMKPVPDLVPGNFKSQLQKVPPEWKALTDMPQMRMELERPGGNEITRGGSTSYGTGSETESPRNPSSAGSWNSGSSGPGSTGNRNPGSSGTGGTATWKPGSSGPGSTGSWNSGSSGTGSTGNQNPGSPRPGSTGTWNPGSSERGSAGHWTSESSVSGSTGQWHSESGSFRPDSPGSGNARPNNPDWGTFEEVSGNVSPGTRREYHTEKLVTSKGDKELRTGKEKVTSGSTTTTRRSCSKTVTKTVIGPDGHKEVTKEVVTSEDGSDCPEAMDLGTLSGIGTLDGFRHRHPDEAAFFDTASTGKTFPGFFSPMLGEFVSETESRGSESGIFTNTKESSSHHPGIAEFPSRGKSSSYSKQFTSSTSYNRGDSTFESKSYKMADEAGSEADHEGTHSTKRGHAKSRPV
T1 sequence (P02675 45-491 limits assumed): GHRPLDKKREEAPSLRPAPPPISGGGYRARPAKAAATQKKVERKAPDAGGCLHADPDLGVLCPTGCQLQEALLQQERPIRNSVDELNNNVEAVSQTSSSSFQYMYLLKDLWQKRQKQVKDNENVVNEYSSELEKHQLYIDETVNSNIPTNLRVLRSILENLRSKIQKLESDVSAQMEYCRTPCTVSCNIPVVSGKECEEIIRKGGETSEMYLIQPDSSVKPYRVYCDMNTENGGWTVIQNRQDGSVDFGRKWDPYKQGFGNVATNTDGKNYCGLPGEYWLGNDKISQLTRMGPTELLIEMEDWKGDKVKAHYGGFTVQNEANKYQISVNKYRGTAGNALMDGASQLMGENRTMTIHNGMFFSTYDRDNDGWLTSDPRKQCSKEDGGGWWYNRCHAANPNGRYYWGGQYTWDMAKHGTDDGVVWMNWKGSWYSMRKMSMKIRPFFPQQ
T1 sequence (P02679 27-437 isoform P02679-2 limits assumed): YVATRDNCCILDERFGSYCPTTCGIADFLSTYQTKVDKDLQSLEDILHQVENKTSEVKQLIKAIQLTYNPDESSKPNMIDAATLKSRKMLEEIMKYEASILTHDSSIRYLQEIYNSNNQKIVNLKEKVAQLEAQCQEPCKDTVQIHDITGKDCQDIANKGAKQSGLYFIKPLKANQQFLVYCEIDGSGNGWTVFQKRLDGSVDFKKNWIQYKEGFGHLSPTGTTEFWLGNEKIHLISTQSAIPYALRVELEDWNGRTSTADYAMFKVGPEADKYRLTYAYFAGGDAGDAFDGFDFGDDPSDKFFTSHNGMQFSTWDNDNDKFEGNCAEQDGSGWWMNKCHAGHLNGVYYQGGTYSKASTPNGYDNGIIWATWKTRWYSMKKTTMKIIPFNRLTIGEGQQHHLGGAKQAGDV
Experimental: tPA-binding to fibrin was tested using a modification of the solid-phase fibrin-tPA activity assay (SOFIAtPA) developed by Angles-Cano (1986). This method combines a quantitative enzyme-linked immunosorbent assay (ELISA) technique, which enables calculation of ligand binding affinities, with a chromogenic measurement of enzyme specific activity. The latter provides quantitation of tPA bound to fibrin in the microtiter well, which permits the determination of binding affinities and immobilized fibrin concentration by classic Scatchard analysis.
Nunc Maxisorb microtiter plates were coated overnight at 4° C. with human fibrinogen (Calbiochem; 2.5.tg in 50 p.l 0.05 M sodium bicarbonate, pH 9.6, per well). Background wells were left uncoated. […]
About 200 μl of substrate-zymogen reagent (0.33 μM plasminogen+0.33 mM D-Val-Leu-Lys-p-nitroanilide in 0.02 M PBS, pH 7.3, with 0.1 M sodium chloride) was added to each sample well and to 12 additional wells (standard wells). […] The plates were then read at 405 nm in a Coulter microplate reader. Based on the response of the standards and the net OD of samples corrected for background absorbance in albumin-coated wells, concentrations of bound active tPA were calculated; Scatchard analyses were then performed and binding affinities determined.

occluded femoral artery = conditions: tPA infusion with transcutaneous ultrasound; cited from earlier work
[2] = tPA enzyme activity after PPACK inactivation, paranitroanilide-substrate method; assay type: biochemical; conditions: S.E., n=3
Experimental: Reconstituted tPA was incubated with a fivefold molar excess of PPACK in 0.2 M L-arginine in 0.05M phosphate buffer, pH 7.2, with 0.01% Tween 20 for 1 hour at room temperature, followed by dialysis against reaction buffer to remove unreacted PPACK. A control preparation was carried through the procedure without PPACK and all procedures involving PPACK were protected from light. Enzyme activity in PPACK-treated and control tPA preparations was measured with a […] paranitroanilide-substrate method (Ranby and Wallen, 1981).

fibrin [3] = target: T1, fibrin; assay: Two-stage fibrin pad ELISA, Scatchard and van't Hoff analysis; conditions: undiluted fresh-frozen rabbit serum, 37° C.; read-out: binding affinity (KD) in serum

## tPA: Recombinant tissue-plasminogen activator (Activase®, Genentech Inc.), used as the thrombolytic agent [reference compound]
Fibrin [1]
  Kd: 2.61 nM
Occluded femoral artery
  decrease in time for recanalization: 80%

## tPA(P): Human recombinant tPA (Activase®) irreversibly inhibited with D-phe-L-pro-L-arg-chloromethyl ketone (PPACK)
[2]
  Percent Starting Activity: 4.7 ± 2.9%
Fibrin [3]
  Kd: 9.52 nM
